# Test results as given in the supplement of paper PMC7125110.
# ± gives the standard error. For some of these results: This sample holds only a part of the variants without activity.
# B1: glmS ribozyme (parent)
# chain: AUAAAAGCGCCAGAACUACAGAAAUGUAGUUGACGAGGAGGAGGUUUAUCGAAUUUUCGGCGGAUGCCUCCAAA
# Assays:
# Conditions in all cases: with glucosamine-6-phosphate
# [1] = variants of: B1; assay: kcat; higher = faster cleavage; RNA array
# Procedure, shortened: (§1)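 Tiles bearing barcoded ribozyme variants, transcribed in situ by E. coli RNA polymerase on sequenced MiSeq chips, were imaged over ~14 h at 37 °C using a hybridised Cy3 probe. Glucosamine-6-phosphate was supplied at 40 μM to 10 mM in HEPES/KCl/Mg(OAc)2 buffer. kobs came from one- or two-exponential decay fits to normalised per-tile medians, and weighted Michaelis–Menten fits then provided kcat and KM.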
# [2] = variants of: B1; assay: KM; higher = weaker cofactor use; RNA array
# Procedure, shortened: as §1
# [3] = variants of: B1; assay: self-cleavage kobs at 640 uM GlcN6P; higher = faster cleavage; RNA array
# Procedure, shortened: as §1
# [4] = variants of: B1; assay: self-cleavage kobs at 2500 uM GlcN6P; higher = faster cleavage; RNA array
# Procedure, shortened: as §1
# [5] = variants of: B1; assay: self-cleavage kobs at 10000 uM GlcN6P; higher = faster cleavage; RNA array
# Procedure, shortened: as §1
# [6] = variants of: B1; assay: self-cleavage kobs at 40 uM GlcN6P; higher = faster cleavage; RNA array
# Procedure, shortened: as §1
# [7] = variants of: B1; assay: self-cleavage kobs at 160 uM GlcN6P; higher = faster cleavage; RNA array
# Procedure, shortened: as §1
Variant,kcat [1] [s⁻¹],KM [2] [µM],self-cleavage kobs at 640 uM GlcN6P [3] [s⁻¹],self-cleavage kobs at 2500 uM GlcN6P [4] [s⁻¹],self-cleavage kobs at 10000 uM GlcN6P [5] [s⁻¹],self-cleavage kobs at 40 uM GlcN6P [6] [s⁻¹],self-cleavage kobs at 160 uM GlcN6P [7] [s⁻¹]
G9A C61U,0.000168 ± 1.3e-05,1390 ± 290,5.18e-05 ± 1.1e-05,0.000144 ± 5.4e-05,0.000146 ± 1.8e-05,–,–
A14U U56A,0.00382 ± 0.0017,–,0.000692 ± 0.00012,0.00186 ± 0.00034,0.00407 ± 0.00084,0.000146 ± 3.2e-05,0.00029 ± 4.9e-05
G60C G62C,–,–,–,–,–,< 1e-05,< 1e-05
G13A A15C,0.000242 ± 3.2e-05,2680 ± 760,5.24e-05 ± 1.1e-05,9.3e-05 ± 2.5e-05,0.000198 ± 2.6e-05,–,–
U46G C68A,3.1e-05 ± 2.2e-06,–,–,–,3.1e-05 ± 1.1e-05,–,–
A33U G37U,< 1e-05,–,–,–,–,–,< 1e-05
C34A U56G,< 1e-05,31 ± 12,< 1e-05,< 1e-05,–,< 1e-05,< 1e-05
A53C C58A,5.04e-05 ± 1.4e-05,–,–,1.94e-05 ± 7.6e-06,3.91e-05 ± 8.6e-06,–,–
U56G G60A,2.37e-05 ± 6.7e-07,623 ± 130,–,–,2.25e-05 ± 1.1e-05,< 1e-05,–
G32A C70A,7.22e-05 ± 1.4e-05,–,8.06e-05 ± 1.2e-05,8.73e-05 ± 8.9e-06,5.13e-05 ± 8.6e-06,–,–
A48G G59A,5.08e-05 ± 1.8e-05,–,–,6.29e-05 ± 1.8e-05,–,–,–
C50U U56G,1.91e-05 ± 1.3e-06,829 ± 360,–,–,–,–,< 1e-05
A15G A33C,0.000368 ± 3.1e-05,2210 ± 330,8.06e-05 ± 9.8e-06,0.000213 ± 3e-05,0.00029 ± 4.2e-05,–,–
G38U A39G,–,2660 ± 1000,–,–,–,–,–
G13U A36C G38U A39C,1.03e-05 ± 4.7e-06,–,–,–,–,–,–
C10U A52G,< 1e-05,–,–,–,–,–,–
C11A,0.000291 ± 2.1e-05,2280 ± 280,6.25e-05 ± 1.7e-06,0.000153 ± 3.1e-06,0.000236 ± 1.4e-05,< 1e-05,2.39e-05 ± 2.4e-06
U31C U69G,3.99e-05 ± 1.4e-05,–,–,5.64e-05 ± 1.6e-05,–,–,–

Variant,kcat [1] [s⁻¹],KM [2] [µM],self-cleavage kobs at 640 uM GlcN6P [3] [s⁻¹],self-cleavage kobs at 2500 uM GlcN6P [4] [s⁻¹],self-cleavage kobs at 10000 uM GlcN6P [5] [s⁻¹],self-cleavage kobs at 40 uM GlcN6P [6] [s⁻¹],self-cleavage kobs at 160 uM GlcN6P [7] [s⁻¹]
U30G C50A,< 1e-05,–,–,–,–,< 1e-05,–
A6C U45A,0.000229 ± 1.7e-05,3720 ± 750,3.95e-05 ± 1.9e-05,8.34e-05 ± 2.8e-05,0.000168 ± 2.1e-05,< 1e-05,–
A12U G40U U45G,0.00175 ± 0.00051,–,0.000743 ± 0.00024,0.00239 ± 0.0011,0.00207 ± 0.00036,0.000216 ± 3.5e-05,–
C16G C71A,0.000641 ± 0.00015,2900 ± 1000,0.000111 ± 1.9e-05,0.000462 ± 0.00011,0.000465 ± 8.7e-05,–,–
A39U U65G,0.00369 ± 0.0011,2880 ± 1200,0.000445 ± 9.7e-05,0.00164 ± 0.00021,0.0031 ± 0.00036,6.84e-05 ± 8.5e-06,0.0002 ± 2.9e-05
C10U A15G C68U,1.81e-05 ± 6.2e-06,–,–,–,–,–,–
C11A C68U,5.04e-05 ± 2.5e-06,459 ± 170,3.2e-05 ± 1.4e-05,3.54e-05 ± 1.4e-05,4.9e-05 ± 6.3e-06,–,–
G37C A53U U69G,3.72e-05 ± 1.7e-05,–,3.81e-05 ± 1.9e-05,6.4e-05 ± 2.4e-05,–,–,–
A39C U54A,0.00479 ± 0.0015,1410 ± 630,0.00157 ± 0.00028,0.00219 ± 0.00068,0.00615 ± 0.0015,0.000143 ± 4.1e-05,0.000483 ± 0.00013
U45A U54A,0.115 ± 0.045,2630 ± 1200,0.0204 ± 0.0069,0.122 ± 0.049,0.0819 ± 0.035,0.00179 ± 0.00033,0.00611 ± 0.0017
C10U A33U U54C,4.81e-05 ± 4.1e-06,3720 ± 750,–,–,3.5e-05 ± 1.5e-05,–,–
G66A C67G,0.00418 ± 0.0021,–,0.000703 ± 0.0001,0.00281 ± 0.00066,0.00412 ± 0.00067,0.000102 ± 1.4e-05,0.000414 ± 5.4e-05
G32U A64U,< 1e-05,–,< 1e-05,–,–,–,< 1e-05
U47C U56G,0.00245 ± 0.00054,1580 ± 540,0.000708 ± 8.7e-05,0.00108 ± 0.00025,0.00243 ± 0.0003,7.97e-05 ± 1.3e-05,0.000196 ± 4e-05
A6C G59A,< 1e-05,–,–,–,< 1e-05,< 1e-05,–
G13C G29A,0.000136 ± 1.6e-05,3070 ± 910,3.33e-05 ± 1.2e-05,5.64e-05 ± 9.9e-06,0.000106 ± 1.2e-05,–,–
A39U U56G,0.0257 ± 0.011,–,0.0021 ± 0.00031,0.00893 ± 0.0013,0.0139 ± 0.0021,0.000177 ± 2.7e-05,0.000402 ± 8.7e-05
